Results: PMC3105061

Molecular target: fluorescein labeled SecYEG reconstituted in proteoliposomes (E. coli) (UniProt P0AGA2)
Assay: FRET or BRET; DCFBA-FRET on single proteoliposomes; SecYEG-FM (donor, 488 nm excitation) in PLs, proOmpA(C282)-DhfR-Atto647N (acceptor) in complex with SecB, SecA, NADPH and methotrexate, with or without ATP; in hydrogel of gelator 1 and in suspension; stalled translocation intermediate

UniProt P0AGA2, sequence (P0AGA2 whole entry, chain 1 of 3): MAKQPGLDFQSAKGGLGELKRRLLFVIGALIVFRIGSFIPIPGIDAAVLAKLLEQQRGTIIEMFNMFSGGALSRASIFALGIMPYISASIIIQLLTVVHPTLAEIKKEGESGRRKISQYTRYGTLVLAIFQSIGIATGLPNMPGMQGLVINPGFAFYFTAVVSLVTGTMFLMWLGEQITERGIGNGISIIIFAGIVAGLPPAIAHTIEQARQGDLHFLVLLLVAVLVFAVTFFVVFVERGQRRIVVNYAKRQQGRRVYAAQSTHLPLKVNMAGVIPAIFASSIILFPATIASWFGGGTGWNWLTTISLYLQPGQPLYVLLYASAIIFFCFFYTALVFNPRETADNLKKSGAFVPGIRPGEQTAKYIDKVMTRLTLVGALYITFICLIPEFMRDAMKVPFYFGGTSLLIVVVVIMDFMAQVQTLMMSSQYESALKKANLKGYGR
UniProt P0AGA2, sequence (P0AG96 whole entry, chain 2 of 3, further chain): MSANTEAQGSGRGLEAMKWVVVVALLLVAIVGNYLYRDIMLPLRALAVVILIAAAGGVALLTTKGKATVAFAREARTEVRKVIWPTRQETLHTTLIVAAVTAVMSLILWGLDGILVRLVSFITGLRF
UniProt P0AGA2, sequence (P0AG99 whole entry, chain 3 of 3, further chain): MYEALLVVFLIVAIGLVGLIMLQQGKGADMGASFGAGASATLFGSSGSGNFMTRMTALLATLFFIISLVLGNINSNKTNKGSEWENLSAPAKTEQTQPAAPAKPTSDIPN

average FRET efficiency per liposome in the hydrogel compared to suspension: 50%
Substance: fusion protein proOmpA(C282)-DhfR-Atto647N
